Measured values published in US20240384250A1, “FIBROBLAST GROWTH FACTOR 23 MODULATING COMPOUNDS” (THE UAB RESEARCH FOUNDATION, priority 2021, published 2024).
Entries after “also recorded” stand apart in the source; their conditions may differ. Where two headings read alike, the source gives them in different places.

How the values were obtained:
[1] = tested on: FGF21 binding to FGFR isoforms 1c, 2c, 3c, 4; experiment: Pull-down and plate binding of FGF21 to FGFR isoforms with sKL or heparin; design: species or system human
Experimental: To study the interaction between Fc-tagged FGFR isoforms (Fc-FGFR), FGF isoforms, and sKL, immunoprecipitation studies were conducted. Protein A beads (6501, BioVision) and protein G beads (6511, BioVision) were used at 25 μl of a 50% stock slurry per sample in a total bead volume of 50 μl. Beads were washed 5× in activity buffer (50 mM Tris [pH 7.4], 200 mM NaCl, 0.01% Tween 20). Bead spin-down assays were all performed for 2 minutes at 5000 g. Beads were resuspended in 1 ml of activity buffer in a 1.5-ml snap cap tube. One microgram of Fc-FGFR1 to 4 was incubated with the beads for 1 hour on a bead rotator. Control samples were incubated with 2 μg of anti-FGF antibody instead of Fc-FGFR. […] Samples were analyzed using SDS-PAGE and Western blotting.
(§1) Proteins were coated on 96-well plates (MaxiSorp; 439454, Thermo Fisher Scientific), and proteins were added to wells in 100 μl of enzyme-linked immunosorbent assay (ELISA) coating buffer (E107, Bethyl Laboratories) with a lid placed overtop and incubated at 4° C. overnight. […] Reactions were stopped with ELISA stop solution (E115, Bethyl Laboratories) and analyzed using the Synergy HI plate reader (BioTek) at 450 nm wavelength. […] As a control to remove background absorbance values, wells were coated with an equal amount of BSA to match the amount of protein coated in experimental wells and treated the same as experimental wells. […]

[2] = tested on: FGF1, FGF2, FGF7, FGF19, FGF21; experiment: Plate-based binding assay, other FGF isoforms coated, FLAG-sKL detected with anti-FLAG HRP; design: species or system human; conditions: 10 ng FGF coated, 40 ng FLAG-sKL
Experimental: as §1, with “overnight. Plates were washed 5× with 350 μl of assay buffer (50 mM Tris [pH 7.4], 200 mM NaCl, 0.01% Tween 20) on a 50 TS microplate washer (BioTek). Plates were blocked for 1 hour in 200 μl of assay buffer with 0.5% BSA. Plates were washed as before, and proteins were incubated on plates in 100 μl of assay buffer with 0.5% BSA. Proteins or heparin was incubated in orders described in the respective figure legends. Assays using FLAG-tag-based detection were incubated with anti-FLAG coupled to HRP at 1:20,000, and assays using Fc detection were incubated with anti-human Fc coupled to HRP at 1:10,000.” for “overnight.”

[3] = biological target: T1, FGF19 (Homo sapiens, UniProt O95750); experiment: Co-immunoprecipitation of FGF with FLAG-tagged sKL on anti-FLAG beads; format: binding
T1 construct: purchased R&D Systems 969FG025/CF
Experimental: (§2) To study the interaction between FLAG-tagged sKL and different FGF isoforms, co-immunoprecipitation studies were conducted. FLAG beads (A2220, Sigma-Aldrich) were used at 50 ul of 50% stock slurry per sample. Beads were washed 5× with activity buffer (50 mM Tris [pH 7.4], 200 mM NaCl, 0.01% Tween 20, Sigma-Aldrich). Bead spin-down assays were all performed for 2 minutes at 5000 g. Fifty microliters of a 50% slurry of beads per sample was resuspended in 1 ml of activity buffer in a 1.5-ml snap cap tube. One microgram of FLAG-tagged sKL or Carboxy-terminal bacterial alkaline phosphatase (BAPC; P7457, Sigma-Aldrich) was incubated with the beads for 1 hour on a bead rotator. Beads were then pelleted at 5000 g for 2 minutes and washed 5× with activity buffer. Beads were resuspended in 1 ml of activity buffer and samples with 500 ng of FGF. Beads were incubated for 1 hour on a tube rotator, and beads were pelleted and washed as before. One hundred microliters of I× Laemmli sample buffer (1610737, Bio-Rad) with 1.42 M 2-mercaptoethanol was added, and samples were boiled for 5 minutes and analyzed using sodium dodecylsulfate-polyacrylamide gel electrophoresis (SDS-PAGE) and Western blotting, as described below herein.
(§3) The sample (20 μl) was loaded onto Mini-PROTEAN TGX Precast Gel 4-20% for experiments with <9 samples (4568094, Bio-Rad) or Criterion TGX Precast Gel 4-20% (5678094, Bio-Rad) for experiments with >9 samples. Gels were run in 1× Tris/Glycine/SDS buffer (1610732, Bio-Rad) at 150 V and stopped when the sample dye reached the end of the gel. Gels were removed and electrotransferred via a semi-dry cassette (1703940, Bio-Rad) in I× Tris/Glycine buffer (1610734, Bio-Rad) with 20% methanol. Gels were transferred onto polyvinylidene diflouride membranes (IPVH00010, Millipore) at 20 V for 1 hour. Membranes were then blocked in 5% dried milk with 0.5% Tween 20 diluted in Tris-buffered saline (TBST; pH 7.5) for 1 hour and probed with antibodies against specific antigens at 1:1000 in TBST with 5% dried milk. Blots were washed 3× for 5 minutes in TBST and probed with HRP-coupled secondary antibodies against specific species at 1:10,000 in TBST with 5% dried milk. Membranes were imaged on the SRX-101A X-ray film developer (Konica Minolta).

[4] = biological target: T2, FGF21 (Homo sapiens, UniProt Q9NSA1); experiment: as above; format: binding
T2 construct: purchased R&D Systems 2539FG025/CF
T2 sequence (Q9NSA1 29-209): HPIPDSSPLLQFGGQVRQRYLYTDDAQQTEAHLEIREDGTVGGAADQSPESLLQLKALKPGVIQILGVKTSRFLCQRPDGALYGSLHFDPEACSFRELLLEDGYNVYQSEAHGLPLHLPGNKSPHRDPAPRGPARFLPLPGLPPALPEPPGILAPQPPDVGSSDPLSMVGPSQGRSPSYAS
Experimental: as §2, §3

T1 sequence (O95750 25-216): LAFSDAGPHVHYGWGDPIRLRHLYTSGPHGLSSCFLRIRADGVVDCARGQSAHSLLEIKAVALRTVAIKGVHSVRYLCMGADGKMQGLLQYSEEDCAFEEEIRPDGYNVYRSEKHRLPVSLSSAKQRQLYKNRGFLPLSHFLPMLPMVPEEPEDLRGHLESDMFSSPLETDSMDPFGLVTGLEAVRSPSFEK

binding of FLAG-sKL to other coated FGF isoforms [2]: not observed
FGF19 co-precipitation with immobilized FLAG-sKL [3]: did not bind
FGF19 co-precipitation with immobilized FLAG-sKL ([3]; listed as FLAG-sKL): does not binds FGF19
FGF21 co-precipitation with immobilized FLAG-sKL [4]: did not bind
FGF21 co-precipitation with immobilized FLAG-sKL ([4]; listed as FLAG-sKL): does not binds FGF21
B1: sKL: recombinant soluble α-klotho ectodomain, mouse aa 35-982 and human aa 34-981, FLAG- or Strep/His-tagged, purified from HEK293 cells (protein)
chain: EPGDGAQTWARFSRPPAPEAAGLFQGTFPDGFLWAVGSAAYQTEGGWQQHGKGASIWDTFTHHPLAPPGDSRNASLPLGAPSPLQPATGDVASDSYNNVFRDTEALRELGVTHYRFSISWARVLPNGSAGVPNREGLRYYRRLLERLRELGVQPVVTLYHWDLPQRLQDAYGGWANRALADHFRDYAELCFRHFGGQVKYWITIDNPYVVAWHGYATGRLAPGIRGSPRLGYLVAHNLLLAHAKVWHLYNTSFRPTQGGQVSIALSSHWINPRRMTDHSIKECQKSLDFVLGWFAKPVFIDGDYPESMKNNLSSILPDFTESEKKFIKGTADFFALCFGPTLSFQLLDPHMKFRQLESPNLRQLLSWIDLEFNHPQIFIVENGWFVSGTTKRDDAKYMYYLKKFIMETLKAIKLDGVDVIGYTAWSLMDGFEWHRGYSIRRGLFYVDFLSQDKMLLPKSSALFYQKLIEKNGFPPLPENQPLEGTFPCDFAWGVVDNYIQVDTTLSQFTDLNVYLWDVHHSKRLIKVDGVVTKKRKSYCVDFAAIQPQIALLQEMHVTHFRFSLDWALILPLGNQSQVNHTILQYYRCMASELVRVNITPVVALWQPMAPNQGLPRLLARQGAWENPYTALAFAEYARLCFQELGHHVKLWITMNEPYTRNMTYSAGHNLLKAHALAWHVYNEKFRHAQNGKISIALQADWIEPACPFSQKDKEVAERVLEFDIGWLAEPIFGSGDYPWVMRDWLNQRNNFLLPYFTEDEKKLIQGTFDFLALSHYTTILVDSEKEDPIKYNDYLEVQEMTDITWLNSPSQVAVVPWGLRKVLNWLKFKYGDLPMYIISNGIDDGLHAEDDQLRVYYMQNYINEALKAHILDGINLCGYFAYSFNDRTAPRFGLYRYAADQFEPKASMKHYRKIIDSNGFPGPETLERFCPEEFTVCTECSFFHTRKS
modifications: left off: small tags and cut ends
notes: recombinant soluble α-klotho ectodomain, mouse aa 35-982 and human aa 34-981, FLAG- or Strep/His-tagged, purified from HEK293 cells
binding of FGF21 to any of the FGFR isoforms [1]: did not mediate binding; also recorded: did not lead to complex formation; also recorded: did not bind any of the FGFR isoforms
